Where two headings read alike, the source gives them in different places.
Columns and labels:
[1] = target: T1, purified 6× His-tagged SARS-CoV-2 spike protein (ELISA coat, Example 12) (SARS-CoV-2, UniProt P0DTC2 14-1213)
[2] = target: T1, purified 6× His-tagged SARS-CoV-2 spike …; remark: listed apart in the source

Binder | EC50 [1] [nM] | EC50 [2] [nM]
Anti-spike RBD Ab37 scFv (scFv) scFv: ELMLTQPPSVSVAPGQTARITCGGNNIGSKSVHWYQQKPGQAPVLVVYDDSDRPSGIPERFSGSNSGNTATLTISRVEAGDEADYYCQVWDNTLLFGGGTELTVLGGGSSRSSGVQLVESGGGLVQPGGSLRLSCSASGFTFSSYAMHWVRQAPGKGLEYVSGISSNGGGTHYADSVKGRFSISRDNSKNTLYLQMSSLRAEDTAVYYCVKDDSGSYFSLFDHWGQGTLVTVSSASTKGPSV | 5.28 | 5.18
Anti-spike RBD Ab27 scFv (scFv) scFv: ELQMTQSPSSLSASVGDRVTITCRASQSISSYLNWYQQKPGKAPKLLIYAASSLQSGVPSRFSGSGSGTDFTLTISSLQPEDFATYYCQQANSFPFTFGPGTKVDIKGGSSRSSQVQLVQSGAEVKKPGASVKVSCKASGYTFTSYGISWVRQAPGQGLEWMGWVNPNGGHTGYAQKFQGRVTMTRHTATNTVYMELSSLTSDDTAVYYCARGKGYYYGMDVWGQGTTVLVSSASTKGPSV | 8.85 | –
Anti-spike RBD Ab39 scFv (scFv) scFv: ELVLTQSPGTLSLSPGERATLSCRASQSLYNNFLAWYQQKPGQAPRLLIYAASNRATGIPDRFSGSGSGTDFTLTISRLEPEDFAVYYCQQYGSSPGYTFGQGTKLEIKGGSSRSSQVQLVQSGAEVKKPGSSVKVSCKASGGTFSSYAISWVRQAPGQGLEWMGGIIPIFGTANYAQKFQGRVTITADESTSTAYMELSSLRSEDTAVYYCARTLRQYYYYGMDVWGQGTTVTVSSGSASAPTL | 4.93 | –
